According to patent US20220402995A1 (TOSOH, published 2022):
Positions count from the first letter of the chain named.

B1: AAV-binding protein No. 58 (AVR2 + Ile319Phe) (receptor)
chain: MGSAGESVQFTLPKNEVQLNAYVLQEPPKGETCTYDWQLITHPRDYSGEMEGKHSQILKLSKLTPGLYEFKVIVEGQNAHSEGYVNVTVKPEPRKNRPPIAIVSPQFQEISLPTTSTVIDGSQSTDDDKIVQYHWEELKGPLREEKISEDTAILKLSKLVPGNYTFSLTVVDSDGATNSTTANLTVNKAVDHHHHHH
B2: AAV-binding protein No. 142 (AVR8g + Glu378Gly, Arg403His) (receptor)
chain: B1 chain with V8D, F10I, K53E, K62N, E69G, K90E, R94H, S167R, N178D
B3: AAV-binding protein No. 67 (AVR2 + Pro337Gln) (receptor)
chain: B1 chain with F10I, P28Q
B4: AAV-binding protein No. 66 (AVR2 + Leu333Pro) (receptor)
chain: B1 chain with F10I, L24P
B5: AAV-binding protein No. 62 (AVR2 + Leu328Pro) (receptor)
chain: B1 chain with F10I, L19P
B6: AAV-binding protein No. 128 (AVR8g + Ser312Pro, Pro374Leu) (receptor)
chain: B1 chain with S3P, V8D, F10I, K53E, K62N, P65L, K90E, S167R, N178D
B7: AAV-binding protein No. 59 (AVR2 + Ile319Asn) (receptor)
chain: B1 chain with F10N
B8: AAV-binding protein No. 126 (AVR8g + Lys448Glu) (receptor)
chain: B1 chain with V8D, F10I, K53E, K62N, K90E, K139E, S167R, N178D
B9: AAV-binding protein No. 121 (AVR8g + Val381Ala) (receptor)
chain: B1 chain with V8D, F10I, K53E, K62N, V72A, K90E, S167R, N178D
B10: AAV-binding protein No. 64 (AVR2 + Val332Ala) (receptor)
chain: B1 chain with F10I, V23A
B11: AAV-binding protein No. 130 (AVR8g + Lys323Arg, Glu384Val) (receptor)
chain: B1 chain with V8D, F10I, K14R, K53E, K62N, E75V, K90E, S167R, N178D
B12: AAV-binding protein No. 141 (AVR8g + Leu376Pro, Gly(Ser)390Gly) (receptor)
chain: B1 chain with V8D, F10I, K53E, K62N, L67P, S81G, K90E, S167R, N178D
notes: Gly(Ser)390Gly read as Ser390 of AVR8g back to the wild-type Gly, so Gly390Ser is not applied
B13: AAV-binding protein No. 132 (AVR8g + Gln327His, Glu378Val) (receptor)
chain: B1 chain with V8D, F10I, Q18H, K53E, K62N, E69V, K90E, S167R, N178D
B14: AAV-binding protein No. 114 (AVR8g + Leu372Pro) (receptor)
chain: B1 chain with V8D, F10I, K53E, K62N, L63P, K90E, S167R, N178D
B15: AAV-binding protein No. 69 (AVR2 + Thr350Ser) (receptor)
chain: B1 chain with F10I, T41S
B16: AAV-binding protein No. 120 (AVR8g + Lys380Glu) (receptor)
chain: B1 chain with V8D, F10I, K53E, K62N, K71E, K90E, S167R, N178D
B17: AAV-binding protein No. 137 (AVR8g + Thr341Pro, Phe379Ser) (receptor)
chain: B1 chain with V8D, F10I, T32P, K53E, K62N, F70S, K90E, S167R, N178D
B18: AAV-binding protein No. 140 (AVR8g + Leu372Pro, Val396Ala) (receptor)
chain: B1 chain with V8D, F10I, K53E, K62N, L63P, V87A, K90E, S167R, N178D
B19: AAV-binding protein No. 134 (AVR8g + Asn329Ile, Val499Ile) (receptor)
chain: B1 chain with V8D, F10I, N20I, K53E, K62N, K90E, S167R, N178D, V190I
B20: AVR10 (AAV-binding protein No. 143; AVR8g + Val381Ala, Ile382Val) (receptor)
chain: B1 chain with V8D, F10I, K53E, K62N, V72A, I73V, K90E, S167R, N178D
B21: AAV-binding protein No. 146 (AVR8g + Leu372Gln, Leu376Pro, Val394Asp) (receptor)
chain: B1 chain with V8D, F10I, K53E, K62N, L63Q, L67P, V85D, K90E, S167R, N178D
B22: AAV-binding protein No. 73 (AVR2 + Val396Ala) (receptor)
chain: B1 chain with F10I, V87A
B23: AAV-binding protein No. 149 (AVR8g + Val394Ile, Asn395Ser, Thr426Ala) (receptor)
chain: B1 chain with V8D, F10I, K53E, K62N, V85I, N86S, K90E, T117A, S167R, N178D
B24: AAV-binding protein No. 148 (AVR8g + Glu384Val, Gln432Arg, Ile456Val) (receptor)
chain: B1 chain with V8D, F10I, K53E, K62N, E75V, K90E, Q123R, I147V, S167R, N178D
B25: AAV-binding protein No. 70 (AVR2 + Val383Ala) (receptor)
chain: B1 chain with F10I, V74A
B26: AAV-binding protein No. 116 (AVR8g + Thr373Ala) (receptor)
chain: B1 chain with V8D, F10I, K53E, K62N, T64A, K90E, S167R, N178D
B27: AAV-binding protein No. 115 (AVR8g + Leu372Gln) (receptor)
chain: B1 chain with V8D, F10I, K53E, K62N, L63Q, K90E, S167R, N178D
B28: AAV-binding protein No. 77 (AVR2 + Leu321Pro, Ile409Val) (receptor)
chain: B1 chain with F10I, L12P, I100V

Columns and labels:
[1] = biological target: T1, VLP2 (virus-like particles of AAV2) (AAV2, UniProt P03135 1-735; P03135 1-598; P03135 1-533); experiment: ELISA on VLP2; binding after pH 3.0 51.1°C 15 min / untreated;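 also: binding of the heat-treated AAV-binding protein to VLP2, expressed as a percentage of the binding of the same protein without heating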
T1 construct: Empty AAV2 capsid; background says about 60 protein molecules, VP1:VP2:VP3 = 1:1:10; Immobilised on the ELISA plate
T1 sequence (P03135 whole entry, chain 1 of 3): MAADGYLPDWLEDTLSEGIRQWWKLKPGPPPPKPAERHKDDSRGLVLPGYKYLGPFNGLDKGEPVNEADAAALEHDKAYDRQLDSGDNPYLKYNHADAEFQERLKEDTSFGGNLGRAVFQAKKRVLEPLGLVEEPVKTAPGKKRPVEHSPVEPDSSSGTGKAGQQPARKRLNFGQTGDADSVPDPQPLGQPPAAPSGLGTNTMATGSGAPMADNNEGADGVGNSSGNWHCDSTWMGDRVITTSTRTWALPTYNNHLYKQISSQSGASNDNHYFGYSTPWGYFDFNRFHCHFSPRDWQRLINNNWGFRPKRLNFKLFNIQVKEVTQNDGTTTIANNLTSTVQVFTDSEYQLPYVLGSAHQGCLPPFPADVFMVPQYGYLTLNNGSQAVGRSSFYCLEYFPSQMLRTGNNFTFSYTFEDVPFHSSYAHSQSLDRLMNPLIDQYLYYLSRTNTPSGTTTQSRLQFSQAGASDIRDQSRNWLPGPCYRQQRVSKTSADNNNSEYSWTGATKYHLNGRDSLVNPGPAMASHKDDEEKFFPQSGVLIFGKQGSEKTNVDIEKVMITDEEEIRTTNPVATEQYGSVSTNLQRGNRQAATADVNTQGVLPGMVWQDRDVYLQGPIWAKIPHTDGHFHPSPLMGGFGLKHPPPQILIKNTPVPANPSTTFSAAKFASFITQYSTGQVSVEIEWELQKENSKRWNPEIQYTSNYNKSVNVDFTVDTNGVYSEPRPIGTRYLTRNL
T1 sequence (P03135 139-735, tags left off, chain 2 of 3): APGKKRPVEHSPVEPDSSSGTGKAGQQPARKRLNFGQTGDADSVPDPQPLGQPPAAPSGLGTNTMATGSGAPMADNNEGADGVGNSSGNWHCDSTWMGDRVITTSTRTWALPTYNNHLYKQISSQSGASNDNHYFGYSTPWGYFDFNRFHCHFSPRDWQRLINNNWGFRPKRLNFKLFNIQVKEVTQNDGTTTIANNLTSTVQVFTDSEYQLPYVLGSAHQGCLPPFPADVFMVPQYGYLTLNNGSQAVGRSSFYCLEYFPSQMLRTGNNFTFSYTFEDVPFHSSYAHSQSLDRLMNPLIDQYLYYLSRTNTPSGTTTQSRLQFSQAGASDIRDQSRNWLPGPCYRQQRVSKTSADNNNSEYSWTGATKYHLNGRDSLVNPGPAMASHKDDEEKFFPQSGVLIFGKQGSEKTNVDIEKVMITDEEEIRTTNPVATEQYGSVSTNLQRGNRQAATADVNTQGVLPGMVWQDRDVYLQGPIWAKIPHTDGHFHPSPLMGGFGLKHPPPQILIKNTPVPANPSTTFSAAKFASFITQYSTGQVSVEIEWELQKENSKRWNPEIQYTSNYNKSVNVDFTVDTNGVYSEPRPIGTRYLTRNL
T1 sequence (P03135 203-735, chain 3 of 3): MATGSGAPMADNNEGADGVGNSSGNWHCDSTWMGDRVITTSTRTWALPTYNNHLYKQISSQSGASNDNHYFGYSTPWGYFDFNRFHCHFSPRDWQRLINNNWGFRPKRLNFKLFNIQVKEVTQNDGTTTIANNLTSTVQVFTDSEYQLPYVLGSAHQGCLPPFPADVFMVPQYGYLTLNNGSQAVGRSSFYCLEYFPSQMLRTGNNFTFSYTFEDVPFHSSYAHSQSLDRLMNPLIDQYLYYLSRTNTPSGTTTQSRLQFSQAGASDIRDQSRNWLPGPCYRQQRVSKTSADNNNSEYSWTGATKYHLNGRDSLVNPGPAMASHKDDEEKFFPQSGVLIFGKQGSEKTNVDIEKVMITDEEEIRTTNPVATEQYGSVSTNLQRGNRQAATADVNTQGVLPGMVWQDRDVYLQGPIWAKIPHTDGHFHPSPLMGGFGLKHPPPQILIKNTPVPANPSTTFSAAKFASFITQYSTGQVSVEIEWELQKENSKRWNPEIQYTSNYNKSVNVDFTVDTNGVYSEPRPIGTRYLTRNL
Experimental: The residual activity was calculated by dividing the binding activity of AAV-binding protein to VLP2 when the heat treatment was performed by the binding activity of AAV-binding protein to VLP2 when the heat treatment was not performed.

[2] = biological target: T1, VLP2 (virus-like particles of AAV2); experiment: ELISA on VLP2; binding after pH 10.0 41.2°C 15 min / untreated

| Binder | Residual activity [%] [1] | Residual activity [%] [2] |
| --- | --- | --- |
| B1 | 73.9% | – |
| B2 | – | 76.6% |
| B3 | 45.6% | – |
| B4 | 31.8% | – |
| B5 | 38.8% | – |
| B6 | – | 74.9% |
| B7 | 26.1% | – |
| B8 | – | 34.5% |
| B9 | – | 89.9% |
| B10 | 41.4% | – |
| B11 | – | 63.1% |
| B12 | – | 85% |
| B13 | – | 56.5% |
| B14 | – | 91.6% |
| B15 | 49.9% | – |
| B16 | – | 59.5% |
| B17 | – | 86.3% |
| B18 | – | 92.8% |
| B19 | – | 63.9% |
| B20 | – | 90.3% |
| B21 | – | 81.4% |
| B22 | 48.9% | – |
| B23 | – | 70.5% |
| B24 | – | 37.4% |
| B25 | 32.8% | – |
| B26 | – | 57.8% |
| B27 | – | 72.8% |
| B28 | 34.3% | – |
